In patent US20020146804:

T1: mouse procaspase-14
T1 sequence: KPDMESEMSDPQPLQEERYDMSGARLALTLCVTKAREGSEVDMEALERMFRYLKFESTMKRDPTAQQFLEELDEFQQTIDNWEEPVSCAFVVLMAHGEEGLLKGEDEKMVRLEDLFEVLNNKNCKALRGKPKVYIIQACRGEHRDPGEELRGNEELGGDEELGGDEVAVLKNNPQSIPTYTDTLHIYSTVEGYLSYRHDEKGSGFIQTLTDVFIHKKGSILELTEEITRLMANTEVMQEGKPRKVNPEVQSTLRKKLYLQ

T2: mouse procaspase-14
T2 chain: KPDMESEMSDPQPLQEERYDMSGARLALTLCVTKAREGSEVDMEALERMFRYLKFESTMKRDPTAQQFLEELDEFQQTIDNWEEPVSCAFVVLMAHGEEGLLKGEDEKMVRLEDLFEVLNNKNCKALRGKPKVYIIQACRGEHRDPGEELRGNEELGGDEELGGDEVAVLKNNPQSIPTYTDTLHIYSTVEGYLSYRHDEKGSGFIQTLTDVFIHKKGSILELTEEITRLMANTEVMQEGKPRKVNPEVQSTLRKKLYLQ

B1: cytochrome c-activated caspase-3 in S-100 extract of human embryonic kidney 293 cells (protein)
chain: SGISLDNSYKMDYPEMGLCIIINNKNFHKSTGMTSRSGTDVDAANLRETFRNLKYEVRNKNDLTREEIVELMRDVSKEDHSKRSSFVCVLLSHGEEGIIFGTNGPVDLKKITNFFRGDRCRSLTGKPKLFIIQACRGTELDCGIETDSGVDDDMACHKIPVEADFLYAYSTAPGYYSWRNSKDGSWFIQSLCAMLKQYADKLEFMHILTRVNRKVATEFESFSFDATFHAKKQIPCIVSMLTKELYFYH
B2: cytochrome c-activated caspase-6 in S-100 extract of human embryonic kidney 293 cells (protein)
chain: AFYKREMFDPAEKYKMDHRRRGIALIFNHERFFWHLTLPERRGTCADRDNLTRRFSDLGFEVKCFNDLKAEELLLKIHEVSTVSHADADCFVCVFLSHGEGNHIYAYDAKIEIQTLTGLFKGDKCHSLVGKPKIFIIQACRGNQHDVPVIPLDVVDNQTEKLDTNITEVDAASVYTLPAGADFLMCYSVAEGYYSHRETVNGSWYIQDLCEMLGKYGSSLEFTELLTLVNRKVSQRRVDFCKDPSAIGKKQVPCFASMLTKKLHFFPKSN
B3: cytochrome c-activated caspase-7 in S-100 extract of human embryonic kidney 293 cells (protein)
chain: AKPDRSSFVPSLFSKKKKNVTMRSIKTTRDRVPTYQYNMNFEKLGKCIIINNKNFDKVTGMGVRNGTDKDAEALFKCFRSLGFDVIVYNDCSCAKMQDLLKKASEEDHTNAACFACILLSHGEENVIYGKDGVTPIKDLTAHFRGDRCKTLLEKPKLFFIQACRGTELDDGIQADSGPINDTDANPRYKIPVEADFLFAYSTVPGYYSWRSPGRGSWFVQALCSILEEHGKDLEIMQILTRVNDRVARHFESQSDDPHFHEKKQIPCVVSMLTKELYFSQ
B4: cytochrome c-activated caspase-9 in S-100 extract of human embryonic kidney 293 cells (protein)
chain: MDEADRRLLRRCRLRLVEELQVDQLWDALLSRELFRPHMIEDIQRAGSGSRRDQARQLIIDLETRGSQALPLFISCLEDTGQDMLASFLRTNRQAAKLSKPTLENLTPVVLRPEIRKPEVLRPETPRPVDIGSGGFGDVGALESLRGNADLAYILSMEPCGHCLIINNVNFCRESGLRTRTGSNIDCEKLRRRFSSLHFMVEVKGDLTAKKMVLALLELAQQDHGALDCCVVVILSHGCQASHLQFPGAVYGTDGCPVSVEKIVNIFNGTSCPSLGGKPKLFFIQACGGEQKDHGFEVASTSPEDESPGSNPEPDATPFQEGLRTFDQLDAISSLPTPSDIFVSYSTFPGFVSWRDPKSGSWYVETLDDIFEQWAHSEDLQSLLLRVANAVSVKGIYKQMPGCFNFLRKKLFFKTS

system: T1, mouse procaspase-14

**Q.** How did the “processing (cleavage) of 35S labeled procaspase-14, SDS-PAGE and autoradiography” value (shortened to “processing (cleavage)”) turn out when purified recombinant caspase-8 was run?
**A.** Its value is “a significant amount of processing was observed when procaspase-14 was incubated with Granzyme B, caspase-10 and caspase-8, but not with other caspases”.

**Q.** For purified Granzyme B, which “processing (cleavage)” value is on record?
**A.** Its value is “a significant amount of processing was observed when procaspase-14 was incubated with Granzyme B, caspase-10 and caspase-8, but not with other caspases”.

**Q.** purified recombinant caspase-10 was tested. Which “processing (cleavage)” value did it give?
**A.** The value was “a significant amount of processing was observed when procaspase-14 was incubated with Granzyme B, caspase-10 and caspase-8, but not with other caspases”.

**Q.** purified recombinant caspase-14 was tested. Which “processing (cleavage)” value did it give?
**A.** The value was “Some processing was also observed with recombinant caspase-14 itself”.

Target: T2, mouse procaspase-14

**Q.** For B1, which “cleavage/activation of 35S labeled procaspase-14 in S-100 extracts activated by cytochrome c and dATP, SDS-PAGE and autoradiography” value (“cleavage/activation” for short) is on record?
**A.** The value was “no cleavage/activation of ^35S labeled procaspase-14 was observed in S-100 extracts activated by cytochrome c and dATP”.

**Q.** How did the “cleavage/activation” value turn out when B2 was run?
**A.** Its value is “no cleavage/activation of ^35S labeled procaspase-14 was observed in S-100 extracts activated by cytochrome c and dATP”.

**Q.** For B3, which “cleavage/activation” value is on record?
**A.** Its value is “no cleavage/activation of ^35S labeled procaspase-14 was observed in S-100 extracts activated by cytochrome c and dATP”.

**Q.** How did the “cleavage/activation” value turn out when B4 was run?
**A.** Its value is “no cleavage/activation of ^35S labeled procaspase-14 was observed in S-100 extracts activated by cytochrome c and dATP”.
